Source: patent publication US20210139548A1 (published 2021)
*1 amine or outer side, *2 acyl side, *3 side chain or, on linkers, in order; H or OH if unused. Side-chain parts run from the residue outwards. The star is where a group is joined. C18 diacid = O=C(O)CCCCCCCCCCCCCCCCC(=O)*; γGlu = O=C(O)[C@H](CCC(=O)[*:2])N[*:1]; Isovaleryl = CC(C)CC(=O)*; AEEA = NCCOCCOCC(=O)O

T1: human neuropeptide Y2 receptor (human, UniProt P49146 1-381)
T1 construct: whole, on cells; also called hNPY2 receptor; hNPY2-R
T1 sequence (looked up): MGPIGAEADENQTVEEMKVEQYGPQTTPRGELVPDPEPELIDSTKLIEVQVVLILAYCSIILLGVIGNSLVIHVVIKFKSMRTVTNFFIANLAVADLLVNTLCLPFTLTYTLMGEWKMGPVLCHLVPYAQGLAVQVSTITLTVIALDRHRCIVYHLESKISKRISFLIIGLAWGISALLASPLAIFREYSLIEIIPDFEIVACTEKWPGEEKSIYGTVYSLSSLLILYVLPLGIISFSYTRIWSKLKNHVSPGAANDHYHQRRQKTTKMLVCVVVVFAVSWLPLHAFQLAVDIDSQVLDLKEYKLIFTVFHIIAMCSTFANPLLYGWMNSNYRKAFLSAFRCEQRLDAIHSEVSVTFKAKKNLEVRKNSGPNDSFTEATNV


Target: T1, human neuropeptide Y2 receptor
Test: radioligand competition (125I-PYY(1-36)), hNPY2R membranes
Procedure, shortened: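 Commercial human Y2 receptor membranes (0.5 μg protein/well) were incubated with peptide for 2 h at room temperature in 50 mM HEPES, 5 mM MgCl₂, 1 mM CaCl₂, pH 7.4, with 0.2% ovalbumin. Bound radioligand was separated on PEI-soaked GF/C filters and counted by scintillation, and IC₅₀ came from nonlinear sigmoidal regression.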

Ki [nM]	Binder
9.61	Isovaleryl-APEK([AEEA-AEEA-γGlu-C18 diacid])PEEEAEPEELQRYYVSLRHYYNWLTRQRY-NH2 (SMILES CC(C)CC(=O)N[C@@H](C)C(=O)N1CCC[C@H]1C(=O)N[C@@H](CCC(=O)O)C(=O)N[C@@H](CCCCNC(=O)COCCOCCNC(=O)COCCOCCNC(=O)CC[C@H](NC(=O)CCCCCCCCCCCCCCCCC(=O)O)C(=O)O)C(=O)N1CCC[C@H]1C(=O)N[C@@H](CCC(=O)O)C(=O)N[C@@H](CCC(=O)O)C(=O)N[C@@H](CCC(=O)O)C(=O)N[C@@H](C)C(=O)N[C@@H](CCC(=O)O)C(=O)N1CCC[C@H]1C(=O)N[C@@H](CCC(=O)O)C(=O)N[C@@H](CCC(=O)O)C(=O)N[C@@H](CC(C)C)C(=O)N[C@@H](CCC(N)=O)C(=O)N[C@@H](CCCNC(=N)N)C(=O)N[C@@H](Cc1ccc(O)cc1)C(=O)N[C@@H](Cc1ccc(O)cc1)C(=O)N[C@H](C(=O)N[C@@H](CO)C(=O)N[C@@H](CC(C)C)C(=O)N[C@@H](CCCNC(=N)N)C(=O)N[C@@H](Cc1c[nH]cn1)C(=O)N[C@@H](Cc1ccc(O)cc1)C(=O)N[C@@H](Cc1ccc(O)cc1)C(=O)N[C@@H](CC(N)=O)C(=O)N[C@@H](Cc1c[nH]c2ccccc12)C(=O)N[C@@H](CC(C)C)C(=O)N[C@H](C(=O)N[C@@H](CCCNC(=N)N)C(=O)N[C@@H](CCC(N)=O)C(=O)N[C@@H](CCCNC(=N)N)C(=O)N[C@@H](Cc1ccc(O)cc1)C(N)=O)[C@@H](C)O)C(C)C) [Compound 89]
0.66	Isovaleryl-APEK([AEEA-AEEA-γGlu-C18 diacid])PEEDASPAEIQRYYVSLRHYYNWLTRQRY-NH2 (SMILES CC[C@H](C)[C@H](NC(=O)[C@H](CCC(=O)O)NC(=O)[C@H](C)NC(=O)[C@@H]1CCCN1C(=O)[C@H](CO)NC(=O)[C@H](C)NC(=O)[C@H](CC(=O)O)NC(=O)[C@H](CCC(=O)O)NC(=O)[C@H](CCC(=O)O)NC(=O)[C@@H]1CCCN1C(=O)[C@H](CCCCNC(=O)COCCOCCNC(=O)COCCOCCNC(=O)CC[C@H](NC(=O)CCCCCCCCCCCCCCCCC(=O)O)C(=O)O)NC(=O)[C@H](CCC(=O)O)NC(=O)[C@@H]1CCCN1C(=O)[C@H](C)NC(=O)CC(C)C)C(=O)N[C@@H](CCC(N)=O)C(=O)N[C@@H](CCCNC(=N)N)C(=O)N[C@@H](Cc1ccc(O)cc1)C(=O)N[C@@H](Cc1ccc(O)cc1)C(=O)N[C@H](C(=O)N[C@@H](CO)C(=O)N[C@@H](CC(C)C)C(=O)N[C@@H](CCCNC(=N)N)C(=O)N[C@@H](Cc1c[nH]cn1)C(=O)N[C@@H](Cc1ccc(O)cc1)C(=O)N[C@@H](Cc1ccc(O)cc1)C(=O)N[C@@H](CC(N)=O)C(=O)N[C@@H](Cc1c[nH]c2ccccc12)C(=O)N[C@@H](CC(C)C)C(=O)N[C@H](C(=O)N[C@@H](CCCNC(=N)N)C(=O)N[C@@H](CCC(N)=O)C(=O)N[C@@H](CCCNC(=N)N)C(=O)N[C@@H](Cc1ccc(O)cc1)C(N)=O)[C@@H](C)O)C(C)C) [Compound 95]
0.44	Isovaleryl-APAK([AEEA-AEEA-γGlu-C18 diacid])PPEDASPEELQRYYVSLRHYYNWLTRQRY-NH2 (SMILES CC(C)CC(=O)N[C@@H](C)C(=O)N1CCC[C@H]1C(=O)N[C@@H](C)C(=O)N[C@@H](CCCCNC(=O)COCCOCCNC(=O)COCCOCCNC(=O)CC[C@H](NC(=O)CCCCCCCCCCCCCCCCC(=O)O)C(=O)O)C(=O)N1CCC[C@H]1C(=O)N1CCC[C@H]1C(=O)N[C@@H](CCC(=O)O)C(=O)N[C@@H](CC(=O)O)C(=O)N[C@@H](C)C(=O)N[C@@H](CO)C(=O)N1CCC[C@H]1C(=O)N[C@@H](CCC(=O)O)C(=O)N[C@@H](CCC(=O)O)C(=O)N[C@@H](CC(C)C)C(=O)N[C@@H](CCC(N)=O)C(=O)N[C@@H](CCCNC(=N)N)C(=O)N[C@@H](Cc1ccc(O)cc1)C(=O)N[C@@H](Cc1ccc(O)cc1)C(=O)N[C@H](C(=O)N[C@@H](CO)C(=O)N[C@@H](CC(C)C)C(=O)N[C@@H](CCCNC(=N)N)C(=O)N[C@@H](Cc1c[nH]cn1)C(=O)N[C@@H](Cc1ccc(O)cc1)C(=O)N[C@@H](Cc1ccc(O)cc1)C(=O)N[C@@H](CC(N)=O)C(=O)N[C@@H](Cc1c[nH]c2ccccc12)C(=O)N[C@@H](CC(C)C)C(=O)N[C@H](C(=O)N[C@@H](CCCNC(=N)N)C(=O)N[C@@H](CCC(N)=O)C(=O)N[C@@H](CCCNC(=N)N)C(=O)N[C@@H](Cc1ccc(O)cc1)C(N)=O)[C@@H](C)O)C(C)C) [Compound 100]
1.6	Isovaleryl-APEK([AEEA-AEEA-γGlu-C18 diacid])PEEDASPEELQRYEVSLRHYYNWLTRQRY-NH2 (SMILES CC(C)CC(=O)N[C@@H](C)C(=O)N1CCC[C@H]1C(=O)N[C@@H](CCC(=O)O)C(=O)N[C@@H](CCCCNC(=O)COCCOCCNC(=O)COCCOCCNC(=O)CC[C@H](NC(=O)CCCCCCCCCCCCCCCCC(=O)O)C(=O)O)C(=O)N1CCC[C@H]1C(=O)N[C@@H](CCC(=O)O)C(=O)N[C@@H](CCC(=O)O)C(=O)N[C@@H](CC(=O)O)C(=O)N[C@@H](C)C(=O)N[C@@H](CO)C(=O)N1CCC[C@H]1C(=O)N[C@@H](CCC(=O)O)C(=O)N[C@@H](CCC(=O)O)C(=O)N[C@@H](CC(C)C)C(=O)N[C@@H](CCC(N)=O)C(=O)N[C@@H](CCCNC(=N)N)C(=O)N[C@@H](Cc1ccc(O)cc1)C(=O)N[C@@H](CCC(=O)O)C(=O)N[C@H](C(=O)N[C@@H](CO)C(=O)N[C@@H](CC(C)C)C(=O)N[C@@H](CCCNC(=N)N)C(=O)N[C@@H](Cc1c[nH]cn1)C(=O)N[C@@H](Cc1ccc(O)cc1)C(=O)N[C@@H](Cc1ccc(O)cc1)C(=O)N[C@@H](CC(N)=O)C(=O)N[C@@H](Cc1c[nH]c2ccccc12)C(=O)N[C@@H](CC(C)C)C(=O)N[C@H](C(=O)N[C@@H](CCCNC(=N)N)C(=O)N[C@@H](CCC(N)=O)C(=O)N[C@@H](CCCNC(=N)N)C(=O)N[C@@H](Cc1ccc(O)cc1)C(N)=O)[C@@H](C)O)C(C)C) [Compound 90]
2.07	Isovaleryl-APEK([AEEA-AEEA-γGlu-C18 diacid])PEEDASPEETQRYYVELRHYYNWLTRQRY-NH2 (SMILES CC(C)CC(=O)N[C@@H](C)C(=O)N1CCC[C@H]1C(=O)N[C@@H](CCC(=O)O)C(=O)N[C@@H](CCCCNC(=O)COCCOCCNC(=O)COCCOCCNC(=O)CC[C@H](NC(=O)CCCCCCCCCCCCCCCCC(=O)O)C(=O)O)C(=O)N1CCC[C@H]1C(=O)N[C@@H](CCC(=O)O)C(=O)N[C@@H](CCC(=O)O)C(=O)N[C@@H](CC(=O)O)C(=O)N[C@@H](C)C(=O)N[C@@H](CO)C(=O)N1CCC[C@H]1C(=O)N[C@@H](CCC(=O)O)C(=O)N[C@@H](CCC(=O)O)C(=O)N[C@H](C(=O)N[C@@H](CCC(N)=O)C(=O)N[C@@H](CCCNC(=N)N)C(=O)N[C@@H](Cc1ccc(O)cc1)C(=O)N[C@@H](Cc1ccc(O)cc1)C(=O)N[C@H](C(=O)N[C@@H](CCC(=O)O)C(=O)N[C@@H](CC(C)C)C(=O)N[C@@H](CCCNC(=N)N)C(=O)N[C@@H](Cc1c[nH]cn1)C(=O)N[C@@H](Cc1ccc(O)cc1)C(=O)N[C@@H](Cc1ccc(O)cc1)C(=O)N[C@@H](CC(N)=O)C(=O)N[C@@H](Cc1c[nH]c2ccccc12)C(=O)N[C@@H](CC(C)C)C(=O)N[C@H](C(=O)N[C@@H](CCCNC(=N)N)C(=O)N[C@@H](CCC(N)=O)C(=O)N[C@@H](CCCNC(=N)N)C(=O)N[C@@H](Cc1ccc(O)cc1)C(N)=O)[C@@H](C)O)C(C)C)[C@@H](C)O) [Compound 94]
1.57	Isovaleryl-APEK([AEEA-AEEA-γGlu-C18 diacid])PEEDTSPEELQRYYVSLRHYYNWLTRQRY-NH2 (SMILES CC(C)CC(=O)N[C@@H](C)C(=O)N1CCC[C@H]1C(=O)N[C@@H](CCC(=O)O)C(=O)N[C@@H](CCCCNC(=O)COCCOCCNC(=O)COCCOCCNC(=O)CC[C@H](NC(=O)CCCCCCCCCCCCCCCCC(=O)O)C(=O)O)C(=O)N1CCC[C@H]1C(=O)N[C@@H](CCC(=O)O)C(=O)N[C@@H](CCC(=O)O)C(=O)N[C@@H](CC(=O)O)C(=O)N[C@H](C(=O)N[C@@H](CO)C(=O)N1CCC[C@H]1C(=O)N[C@@H](CCC(=O)O)C(=O)N[C@@H](CCC(=O)O)C(=O)N[C@@H](CC(C)C)C(=O)N[C@@H](CCC(N)=O)C(=O)N[C@@H](CCCNC(=N)N)C(=O)N[C@@H](Cc1ccc(O)cc1)C(=O)N[C@@H](Cc1ccc(O)cc1)C(=O)N[C@H](C(=O)N[C@@H](CO)C(=O)N[C@@H](CC(C)C)C(=O)N[C@@H](CCCNC(=N)N)C(=O)N[C@@H](Cc1c[nH]cn1)C(=O)N[C@@H](Cc1ccc(O)cc1)C(=O)N[C@@H](Cc1ccc(O)cc1)C(=O)N[C@@H](CC(N)=O)C(=O)N[C@@H](Cc1c[nH]c2ccccc12)C(=O)N[C@@H](CC(C)C)C(=O)N[C@H](C(=O)N[C@@H](CCCNC(=N)N)C(=O)N[C@@H](CCC(N)=O)C(=O)N[C@@H](CCCNC(=N)N)C(=O)N[C@@H](Cc1ccc(O)cc1)C(N)=O)[C@@H](C)O)C(C)C)[C@@H](C)O) [Compound 92]
